In US20240158538A1 (HUMMINGBIRD BIOSCIENCE HOLDINGS PTE, published 2024):
Where a chain is given by its changes, count along the chain named. Where two headings read alike, the source gives them in different places. Each block holds one binder with its values, some of them ahead of it.

How the values were obtained:
[1] = target: T1, human VISTA polypeptide (ELISA coat) (human, UniProt Q9H7M9 33-194); assay: ELISA, plate coated with B7H5 (VISTA)
T1 construct: Recombinant protein (Sino Biological) coated on ELISA plates; construct not described

[2] = target: T2, PD-1 (ELISA coat) (human, UniProt Q15116 25-167, limits assumed); assay: ELISA, plate coated with PD1
T2 construct: Species read from the list 'human VISTA, PD-1, PD-L1, ...'
T2 sequence (Q15116 25-167 limits assumed): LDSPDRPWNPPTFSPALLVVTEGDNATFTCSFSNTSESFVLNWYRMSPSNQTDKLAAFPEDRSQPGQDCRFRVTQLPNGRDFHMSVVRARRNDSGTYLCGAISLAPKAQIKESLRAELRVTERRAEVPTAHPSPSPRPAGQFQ

[3] = target: T3, CTLA4 (ELISA coat) (human, UniProt P16410 36-162, limits assumed); assay: ELISA, plate coated with CTLA4
T3 construct: Species read from the list 'human VISTA, PD-1, PD-L1, ...'
T3 sequence (P16410 36-162 limits assumed): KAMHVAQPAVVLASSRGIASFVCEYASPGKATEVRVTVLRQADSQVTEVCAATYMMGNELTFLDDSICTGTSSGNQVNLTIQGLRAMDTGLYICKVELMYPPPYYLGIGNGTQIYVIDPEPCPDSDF

[4] = target: T4, human PD-L1 (ELISA coat) (human, UniProt Q9NZQ7 19-239); assay: ELISA, plate coated with B7H1 (PDL1)
T4 sequence (Q9NZQ7 19-239 limits assumed): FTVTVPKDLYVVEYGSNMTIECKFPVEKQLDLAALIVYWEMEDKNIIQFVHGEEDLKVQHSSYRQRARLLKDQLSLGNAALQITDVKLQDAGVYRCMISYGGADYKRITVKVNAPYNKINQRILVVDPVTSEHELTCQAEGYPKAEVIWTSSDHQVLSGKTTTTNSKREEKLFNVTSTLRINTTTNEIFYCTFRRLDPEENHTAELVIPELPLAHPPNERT

[5] = target: T5, B7H6 (ELISA coat) (human, UniProt Q68D85 25-262, limits assumed); assay: ELISA, plate coated with B7H6
T5 construct: Species read from the list 'human VISTA, PD-1, PD-L1, ...'; also called NCR3LG1
T5 sequence (looked up): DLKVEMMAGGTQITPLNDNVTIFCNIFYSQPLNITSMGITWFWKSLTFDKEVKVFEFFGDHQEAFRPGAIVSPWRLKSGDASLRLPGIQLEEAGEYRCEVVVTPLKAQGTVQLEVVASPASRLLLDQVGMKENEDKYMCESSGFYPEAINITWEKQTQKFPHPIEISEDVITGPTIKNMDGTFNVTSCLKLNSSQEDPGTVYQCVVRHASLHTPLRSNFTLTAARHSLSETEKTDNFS

[6] = target: T6, B7H7 (ELISA coat) (human, UniProt Q9UM44 23-344, limits assumed); assay: ELISA, plate coated with B7H7
T6 construct: Species read from the list 'human VISTA, PD-1, PD-L1, ...'; also called HHLA2
T6 sequence (looked up): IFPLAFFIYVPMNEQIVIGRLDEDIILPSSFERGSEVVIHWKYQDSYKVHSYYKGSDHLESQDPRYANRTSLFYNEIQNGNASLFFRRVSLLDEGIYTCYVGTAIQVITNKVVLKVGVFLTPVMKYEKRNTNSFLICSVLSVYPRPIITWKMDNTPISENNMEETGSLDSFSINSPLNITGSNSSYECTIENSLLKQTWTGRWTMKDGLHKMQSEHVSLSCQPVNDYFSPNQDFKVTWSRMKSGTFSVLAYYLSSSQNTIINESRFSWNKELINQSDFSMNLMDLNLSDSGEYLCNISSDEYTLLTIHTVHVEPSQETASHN

[7] = target: T7, B7H4 (ELISA coat) (human, UniProt Q7Z7D3 25-258, limits assumed); assay: ELISA, plate coated with B7H4
T7 construct: Species read from the list 'human VISTA, PD-1, PD-L1, ...'; also called VTCN1
T7 sequence (looked up): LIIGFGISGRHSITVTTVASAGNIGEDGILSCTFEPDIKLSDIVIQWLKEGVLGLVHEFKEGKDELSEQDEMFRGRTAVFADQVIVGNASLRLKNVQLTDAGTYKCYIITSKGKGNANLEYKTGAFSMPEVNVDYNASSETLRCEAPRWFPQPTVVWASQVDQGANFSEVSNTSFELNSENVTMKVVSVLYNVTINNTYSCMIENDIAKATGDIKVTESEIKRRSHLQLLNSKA

[8] = target: T8, B7H3 (ELISA coat) (human, UniProt Q5ZPR3 29-461, limits assumed); assay: ELISA, plate coated with B7H3
T8 construct: Species read from the list 'human VISTA, PD-1, PD-L1, ...'; also called CD276
T8 sequence (looked up): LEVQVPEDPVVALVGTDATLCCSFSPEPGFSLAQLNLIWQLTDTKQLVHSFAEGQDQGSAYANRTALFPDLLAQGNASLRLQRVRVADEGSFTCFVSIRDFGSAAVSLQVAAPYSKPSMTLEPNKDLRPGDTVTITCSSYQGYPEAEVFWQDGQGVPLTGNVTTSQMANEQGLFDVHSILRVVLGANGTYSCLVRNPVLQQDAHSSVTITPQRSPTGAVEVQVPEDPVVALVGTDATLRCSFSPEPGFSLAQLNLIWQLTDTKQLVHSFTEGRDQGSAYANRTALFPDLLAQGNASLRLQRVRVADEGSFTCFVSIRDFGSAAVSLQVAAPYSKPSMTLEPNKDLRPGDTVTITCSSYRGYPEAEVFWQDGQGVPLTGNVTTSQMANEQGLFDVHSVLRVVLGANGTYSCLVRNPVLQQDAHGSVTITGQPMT

[9] = target: T6, B7H7 (ELISA coat); assay: ELISA, plate coated with B7H7; remark: listed apart in the source
[10] = target: T5, B7H6 (ELISA coat); assay: ELISA, plate coated with B7H6; remark: listed apart in the source
[11] = target: T2, PD-1 (ELISA coat); assay: ELISA, plate coated with PD1; remark: listed apart in the source
[12] = target: T8, B7H3 (ELISA coat); assay: ELISA, plate coated with B7H3; remark: listed apart in the source
[13] = target: T7, B7H4 (ELISA coat); assay: ELISA, plate coated with B7H4; remark: listed apart in the source
[14] = target: T3, CTLA4 (ELISA coat); assay: ELISA, plate coated with CTLA4; remark: listed apart in the source
[15] = target: T4, human PD-L1 (ELISA coat); assay: ELISA, plate coated with B7H1 (PDL1); remark: listed apart in the source
[16] = target: T3, CTLA4 (ELISA coat); assay: ELISA, plate coated with CTLA4; remark: listed apart in the source
[17] = target: T5, B7H6 (ELISA coat); assay: ELISA, plate coated with B7H6; remark: listed apart in the source
[18] = target: T8, B7H3 (ELISA coat); assay: ELISA, plate coated with B7H3; remark: listed apart in the source
[19] = target: T7, B7H4 (ELISA coat); assay: ELISA, plate coated with B7H4; remark: listed apart in the source
[20] = target: T4, human PD-L1 (ELISA coat); assay: ELISA, plate coated with B7H1 (PDL1); remark: listed apart in the source
[21] = target: T6, B7H7 (ELISA coat); assay: ELISA, plate coated with B7H7; remark: listed apart in the source
[22] = target: T2, PD-1 (ELISA coat); assay: ELISA, plate coated with PD1; remark: listed apart in the source

EC50 (read off the curve) [1]: ~0.02 nM
B1: anti-VISTA clone V4-C28 IgG1 (antibody, V domains shown)
VH: QVQLQESGPGLVKPSDTLSLTCTVSGYSITSDYTWNWIRQTPGKGLEWIGHITYSGSVSYNPSLRSRVTISRDTSKNQFSLKLSSVTAADTATYSCARALYYPWYFDVWGTGTTVTVSS
VL: EIVLTQSPATLSLSPGERATLSCRASSSVGYIHWYQQKPGQAPRPLIYATSYRATGIPARFSGSGSGTDNTLTISSLEPEDSAVYYCQQWSSYPPITFGGGTKLEVKR
notes: Human IgG1/kappa
binding result [2]: no binding (tested: log -7.5 (about 3e-8 M))
binding result [3]: no binding (tested: log -7.5 (about 3e-8 M))
binding result [4]: no binding (tested: log -7.5 (about 3e-8 M))
binding result [5]: no binding (tested: log -7.5 (about 3e-8 M))
binding result [6]: no binding (tested: log -7.5 (about 3e-8 M))
binding result [7]: no binding (tested: log -7.5 (about 3e-8 M))
binding result [8]: no binding (tested: log -7.5 (about 3e-8 M))

B2: anti-VISTA clone V4-C31 IgG1 (antibody, V domains shown)
VH: B1 VH
VL: B1 VL with S51Y, A54T
notes: Human IgG1/kappa
binding result [9]: no binding (tested: log -7.5 (about 3e-8 M))
binding result [10]: no binding (tested: log -7.5 (about 3e-8 M))
binding result [11]: no binding (tested: log -7.5 (about 3e-8 M))
binding result [12]: no binding (tested: log -7.5 (about 3e-8 M))
binding result [13]: no binding (tested: log -7.5 (about 3e-8 M))
binding result [14]: no binding (tested: log -7.5 (about 3e-8 M))
binding result [15]: no binding (tested: log -7.5 (about 3e-8 M))

B3: anti-VISTA clone V4-C30 IgG1 (antibody, V domains shown)
VH: B1 VH
VL: B1 VL with S51Y
notes: Human IgG1/kappa
binding result [16]: no binding (tested: log -7.5 (about 3e-8 M))
binding result [17]: no binding (tested: log -7.5 (about 3e-8 M))
binding result [18]: no binding (tested: log -7.5 (about 3e-8 M))
binding result [19]: no binding (tested: log -7.5 (about 3e-8 M))
binding result [20]: no binding (tested: log -7.5 (about 3e-8 M))
binding result [21]: no binding (tested: log -7.5 (about 3e-8 M))
binding result [22]: no binding (tested: log -7.5 (about 3e-8 M))
